In patent US20240109955A1 one finds IC50, pseudovirus neutralization and IC80, pseudovirus neutralization data, which are given here for 1 molecule.

Experiment in all cases: cell-based or functional assay
Assay [1] concerns the target SARS-CoV-2 spike protein, Omicron variant BA.2.75.2 (SARS-CoV-2).
The target of assay [2] is SARS-CoV-2 spike protein, Omicron variant BA.4/5 (SARS-CoV-2).
The target in assay [3] is SARS-CoV-2 spike protein, Omicron variant BQ.1 (SARS-CoV-2).
Assay [4] concerns the target SARS-CoV-2 spike protein, Omicron variant BQ.1.1 (SARS-CoV-2).
In assay [5] the target is SARS-CoV-2 spike protein, Omicron variant XBB (SARS-CoV-2).

B1: MX1073 (protein)
chain 1: QTVVTQEPSFSVSPGGTVTLTCGLSSGSVSTAYFPSWYQQTPGQAPRTLIYGTNTRSSGVPDRFSGSILGNKAALTITGAQADDESDYYCVLYMGRGIVVFGGGTKLTVLGGSSGEIVLTQSPGTLSLSPGETATLSCRASQSFSSDLAWYQQKPGQAPRLLIYGASSRATGIPDRFSGSGSGTDFTLTISRLEPADFAVYYCQQYGSSPPVTFGGGTKVEIKGGGGSGGSGSGGGGSASGSGEVQLVESGGGLIQPGGSLRLSCAASGVIVSYNYMNWVRQAPGKGLEWVSVIYSGGSTFYADSVRGRFTISRDNSKNTLYLQMNSLRAEDTAVYYCARDLGPAGAFDIWGLGTMVTVSSGGSSGQVQLVESGGGVVQPGRSLRLSCAASGFTLSSYGMHWVRQAPGKGLEWVAVISYDGSNKYYVDSVKGRFTISRDNSKNTLYLQMNSLRAEDTAVYYCRWAYWELLPDYYYGMDVWGQGTTVTVSSASGGSGDKTHTCPPCPAPELLGGPSVFLFPPKPKDTLMISRTPEVTCVVVDVSHEDPEVKFNWYVDGVEVHNAKTKPREEQYNSYVVSVLTVLHQDWLNGKEYKCKVSNKALPAPIEKTISKAKGQPREPQVYTLPPCRDELTKNQVSLWCLVKGFYPSDIAVEWESNGQPENNYKTTPPVLDSDGSFFKKLTVDKSRWQQGNVFSCSVLHEALHSHYTQKSLSLSPG
chain 2: QTVVTQEPSFSVSPGGTVTLTCGLSSGSVSTAYFPSWYQQTPGQAPRTLIYGTNTRSSGVPDRFSGSILGNKAALTITGAQADDESDYYCVLYMGRGIVVFGGGTKLTVLGGSSGDTVMTQSPLSLPVTPGEPASISCRSSQSLLNSNGYNYLDWYVQKPGQSPQLLIYLGSNRASGVPDRFSGSGSGTDFTLKISRVEAEDVGVYYCMQPLQTPLFTFGPGTKVEIKGGGGSGGSGSGGGGSASGSGQVTLRESGPALVKPTQTLTLTCTFSGFSLSTRGVCVSWIRQPPGKALEWLAFIDWDDDKYYNTSLKTRLTISKDTSKNQVVLTMTNVHPVDTATYYCARISSHHGSSWCTTFDYWGQGALVTVSAGGSSGQVQLVESGGGVVQPGRSLRLSCAASGFTLSSYGMHWVRQAPGKGLEWVAVISYDGSNKYYVDSVKGRFTISRDNSKNTLYLQMNSLRAEDTAVYYCRWAYWELLPDYYYGMDVWGQGTTVTVSSASGGSGDKTHTCPPCPAPELLGGPSVFLFPPKPKDTLMISRTPEVTCVVVDVSHEDPEVKFNWYVDGVEVHNAKTKPREEQYNSYVVSVLTVLHQDWLNGKEYKCKVSNKALPAPIEKTISKAKGQPREPQVCTLPPSRDELTKNQVSLSCAVKGFYPSDIAVEWESNGQPENNYKTTPPVLDSDGSFFLVSKLTVDKSRWQQGNVFSCSVLHEALHSHYTQKSLSLSPG
As to B1, the IC50, pseudovirus neutralization was 1.81 ng/mL in assay [1]; 2.78 ng/mL in assay [2]; 1.9 ng/mL in assay [3]; 5.77 ng/mL in assay [4]; 9.3 ng/mL in assay [5]. Moreover, the IC80, pseudovirus neutralization stood at 3.35 ng/mL in assay [1]; 4.28 ng/mL in assay [2]; 10.8 ng/mL in assay [3]; 24.1 ng/mL in assay [4]; 24 ng/mL in assay [5].
